{"source": "a protein production outcome set (Wang et al. 2014)"}
{"test": "label from the status in PepcDB records"}
{"sequence": "MSLVENLSLEPQPKRRKIDPEVKESPSRNCSHWFVRNKVCASCNTIVDNYQGRSFDYLYTGIQMSNEALGFTKRLISQTSWLEDKKLHLVLDLDHTLVHTIKVSQLSESEKYITEEVESRKDLRRFNTGFPEESLIKLRSFVHQFLKECNEMFSLYVYTKGGYDYAQLVLEMIDPDKIYFGNRVITRRESPGFKTLDLVLADERGIVVVDDKSSVWPHDKKNLLQIARYKYFGDQSCLLSECKKKIDESDEKGPLNTALRFLMDVHEEFFCDWSRKDLDSVDVRPLLKEISLRWKRKADGVV", "protein production": "failed"}
{"sequence": "MSLVKIVRIETFPLFHRLEKPYGDANGFKRYRTCYLIRIITESGIDGWGECVDWLPALHVGFTKRIIPFLLGKQAGSRLSLVRTIQKWHQRAASAVSMALTEIAAKAADCSVCELWGGRYREEIPVYASFQSYSDSPQWISRSVSNVEAQLKKGFEQIKVKIGGTSFKEDVRHINALQHTAGSSITMILDANQSYDAAAAFKWERYFSEWTNIGWLEEPLPFDQPQDYAMLRSRLSVPVAGGENMKGPAQYVPLLSQRCLDIIQPDVMHVNGIDEFRDCLQLARYFGVRASAHAYDGSLSRLYALFAQACLPPWSKMKNDHIEPIEWDVMENPFTDLVSLQPSKGMVHIPKGKGIGTEINMEIVNRYKWDGSAYEGHHHHHH", "protein production": "not failed"}
{"sequence": "MSLVNSLTHYEILRIPSDATQDEIKKAYRNRLLNTHPDKLSKSIHDTVSNVTINKIQDAYKILSNIKTRREYDRLILENYK", "protein production": "not failed"}
{"sequence": "MSLWQPLVLVLLVLGCCFAAPRQRQSTLVLFPGDLRTNLTDRQLAEEYLYRYGYTRVAEMRGESKSLGPALLLLQKQLSLPETGELDSATLKAMRTPRCGVPDLGRFQTFEGDLKWHHHNITYWIQNYSEDLPRAVIDDAFARAFALWSAVTPLTFTRVYSRDADIVIQFGVAEHGDGYPFDGKDGLLAHAFPPGPGIQGDAHFDDDELWSLGKGVVVPTRFGNADGAACHFPFIFEGRSYSACTTDGRSDGLPWCSTTANYDTDDRFGFCPSERLYTRDGNADGKPCQFPFIFQGQSYSACTTDGRSDGYRWCATTANYDRDKLFGFCPTRADSTVMGGNSAGELCVFPFTFLGKEYSTCTSEGRGDGRLWCATTSNFDSDKKWGFCPDQGYSLFLVAAHEFGHALGLDHSSVPEALMYPMYRFTEGPPLHKDDVNGIRHLYGPRPEPEPRPPTTTTPQPTAPPTVCPTGPPTVHPSERPTAGPTGPPSAGPTGPPTAGPSTATTVPLSPVDDACNVNIFDAIAEIGNQLYLFKDGKYWRFSEGRGSRPQGPFLIADKWPALPRKLDSVFEEPLSKKLFFFSGRQVWVYTGASVLGPRRLDKLGLGADVAQVTGALRSGRGKMLLFSGRRLWRFDVKAQMVDPRSASEVDRMFPGVPLDTHDVFQYREKAYFCQDRFYWRVSSRSELNQVDQVGYVTYDILQCPED", "protein production": "not failed"}
{"sequence": "MSMGKKHLNINSQNHQSTKDEDNNCKNSLFFGLFDDPESKRLRSGSMKRQYSDMGDSYHRVYDEQNDDVEYDGDGDGDEDEGSRMDMRVLMVLEYMRELYVGQLQLLKKMFPGAAKDEFLGFFNKIGDAVSQIKQDSRPPTKSMTMRRSLSAGSPRFTSKGVNLGPSDLRHERFKVTMVNAGGAAGSAGGGKGGSAAGQGQTKK", "protein production": "failed"}
{"sequence": "MSMHPFLASPQQKIVSRMSPRPPPSPVCLGDLTHPIIAGLISVIVNYGGTFILVFQAAKIAGLSPELTASWVWSISIGVGLTGLFLSLRYREPIITAWSTPAAAFLVTALATTPYAEAIGAYMISAAAFVVLGLSGYFEKVIRLIPPGIASGLLAGILLQFGIGAFGGASVDPWLVGLLIAAYVALKRFSARYAVVGILLLGLAFLLTQGRVDLSGLKLVFAAPVFSMPEFSLNALLSVALPLFLITLTGQYMPGMLVLRNDGFKTSANPIVTVTGLGSLIMAPFGSHAFNIAAITAAIATGREAHEDPSKRWIAGIAAGCFYVLVGVFGVTLAAVFMAFPATFITTLAGLALLGTIGGSLAGAMADPTSREAALITFLASAANIKLLGIGGAFWGLLIGGLAYVVLNGPMPYRATTDHRVTEAAAK", "protein production": "failed"}
{"sequence": "MSMKGISSAESDKLSRRISLTHKRNSEELDVFEAAVYFGYNEASSGDHGHTQKYGYNAAREENPRRWGILGGGRRISLDLPIRCSEQVYHLQQDHHEKHEVTTIKERLGNVRHKQPSSPGGKIASFLNSLFHQAGSKKNKSKSKSKTKPTDPEVEEEIPGGGWMRRRRRSSISHFFSSSRSTSTTTTTTASSSSKSLISSSSSGFRTPPPYLNTPTKNYKQFLNYTSATKQVGEEETKTNKEYSWLDEKLKVMESLSENQRIWSDDEDIDDDRRIKREGEDDGMESDSSSDLFELQNYELSRGGLPVYETTNVANINKTHI", "protein production": "failed"}
